We go through 40 molecules from patent publication US20150025016A1 (COMMISSARIAT A L ENERGIE ATOMIQUE ET AUX ENERGIES …, published 2015).

The Kd is the constant that tells how readily two partners part at equilibrium. Higher therefore signals a looser complex.

B1: peptide i1 (fragment of histone H3, α3 helix) (peptide)
peptide: GAMGTIMPKDIQLARRIRG
notes: The N-terminal GAMG comes from the cloning vector

The target of one experiment is T1, Asf1 (1-156), conserved N-terminal domain of human Asf1 (human, UniProt Q9Y294 1-156).
T1 construct: range 1-156; The ITC legend says Asf1 1-156; Recombinant, cloned in peTM30; also called Asf1a 1-156
T1 sequence (Q9Y294 1-156 limits assumed): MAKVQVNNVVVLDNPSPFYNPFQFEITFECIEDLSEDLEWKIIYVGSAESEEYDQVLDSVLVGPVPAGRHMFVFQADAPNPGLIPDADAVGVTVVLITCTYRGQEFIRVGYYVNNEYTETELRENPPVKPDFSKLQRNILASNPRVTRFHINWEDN
The experiment in a line: ITC (microcalorimetry); second printing of SEQ ID No 42 in a later block of the 6th table. On the procedure:
(§1) All calorimetry experiments were carried out in 50 mM Tris buffer pH 7.4 at 5° C., unless otherwise indicated. Peptides were introduced in the syringe at a concentration of […], and Asf1 was added to the cuvette at a concentration of 30 μM or 10 μM. Calorimety tests were also conducted at 25° C. or in 50 mM Tris buffer 150 mM NaCl pH 7.4 to obtain more detailed information on the characteristics of the interactions studied.
GAMGTLTPKEAELARRIRGAGGRTLNGFG [inhibitor peptide Asf1/H3-H4, peptide i4] displayed a Kd of 180 nM. This lies in the sub-micromolar range.

The target in another experiment is T1, Asf1 (1-156), conserved N-terminal …. The experiment in a line: ITC (microcalorimetry). As for the experimental part: as §1
With GAMGTLTPKEAELARRIRGAGGVTLNGANFVSTG [inhibitor peptide Asf1/H3-H4 of SEQ ID No 63], binding was characterised by a dissociation constant (Kd) of 1680 nM. This counts as single-digit micromolar.
The same measure, in the same setting: then LTAAEHAKRSTLTPKEAELARRIRGAGGVTLNGFG [inhibitor peptide Asf1/H3-H4 of SEQ ID No 53], with 60 nM; and GAMGTLTPKEAELARRIRGAGRTLNGFG [inhibitor peptide Asf1/H3-H4 of SEQ ID No 49], with 950 nM; and GRKKRRQRRRGAMGTITPKEAQLARRIRGAGGVTLNGFG [inhibitor peptide Asf1/H3-H4, peptide TAT-i42V], with 620 nM.
On the same count and under the same terms, under ASTERKWAELARRIAGAGGVTLNGFG [Peptide i5_Aloop] stands 27 nM; under ASTRRKWAELARRIRGAGGVTLNGFG [peptide of SEQ ID No 33], 1330 nM; under ASTERKWAELARRIRGAGGRTLNGFG [Peptide i5_loopR], 29 nM.
Turning to ASTERKWAELARRIRGAGGVTLDGFG [Peptide i5_D], the affinity, expressed as Kd, was 9 nM.
The same measure, in the same setting: under ASTEEKWARLARRIRGAGGVTLNGFG [Peptide i5_s3] stands 20 nM.
Same read-out and setting: under ASTERKWAELARRIRGAGGATLNGFG [Peptide i5_loopA] stands 63 nM; under GAMGTIMPKDIQLARRIRGAGASRTLYGFG [inhibitor peptide Asf1/H3-H4 of SEQ ID No 39], 350 nM.
On the same count and under the same terms, then GAMGTITPKEAQLARRIEGAGASVTLNGFG [inhibitor peptide Asf1/H3-H4 of SEQ ID No 44], with 660 nM.
The molecule GAMGTLTPKEAELARRIEGAGASVTLNGFG [inhibitor peptide Asf1/H3-H4 of SEQ ID No 45] yielded a Kd of 2000 nM. Compared with the last molecule, the Kd is about 3-fold higher.
The same measure, in the same setting: under GAMGTITPKEEQLRRRIEGAGASVTLNGFG [inhibitor peptide Asf1/H3-H4 of SEQ ID No 46] stands 420 nM.
As to GAMGTITPKEAQLARRIRGAGASRTLNGFG [inhibitor peptide Asf1/H3-H4 of SEQ ID No 41], binding was put at a Kd of 800 nM.
Molecule GAMGTLTPKEAELARRIRGAGASRTLNGFG [inhibitor peptide Asf1/H3-H4 of SEQ ID No 43] had a Kd of 350 nM.
On the same count and under the same terms, then GAMGTLTPKEAELARRIRGAGGRTLNGFG [inhibitor peptide Asf1/H3-H4, peptide i4], with 180 nM; and GAMGTLTPKEAELARRIRGAGGVTLNGFG [inhibitor peptide Asf1/H3-H4, peptide i4V], with 60 nM; and GAMGTITPKEAQLARRIRGAGGRTLNGFG [inhibitor peptide Asf1/H3-H4, peptide i4_2], with 220 nM.
On the same count and under the same terms, then GAMGTLTPKEAELARRIRGAGGVTYDGFG [inhibitor peptide Asf1/H3-H4 of SEQ ID No 61], with 100 nM.
On the same count and under the same terms, then GAMGTRTPKERRLARRIRGAGGRTLNGFG [inhibitor peptide Asf1/H3-H4 of SEQ ID No 56], with 30 nM.
Take GAMGTITPKEAQLARRIRGAGGVTLNGFG [inhibitor peptide Asf1/H3-H4, peptide i42V]: the Kd stood at 350 nM.
Still for that read-out and setting: under GAMGTRTPKEARLARRIRGAGGRTLNGFG [inhibitor peptide Asf1/H3-H4 of SEQ ID No 57] stands 260 nM; under GAMGTLTPKEAELARRIRGAGASGRTLNGFG [inhibitor peptide Asf1/H3-H4 of SEQ ID No 74], 1890 nM; under GAMGRVPPAVRKLGNASTERKWAELARRIRGAGGVTLNGFG [inhibitor peptide Asf1/H3-H4 of SEQ ID No 65], 60 nM.
GAMGTLTPKEAELARRIRGAGGVTLNGFGASTG [inhibitor peptide Asf1/H3-H4 of SEQ ID No 62] returned a Kd of 320 nM. Compared with the last molecule, the Kd is about 5.3-fold higher.
On the same count and under the same terms, then LTAAEHAKRSTLTPKEAQLARRIEGAGASVTLNGFG [inhibitor peptide Asf1/H3-H4 of SEQ ID No 54], with 120 nM; and LTAAEHAKRSTLTPKEAELARRIEGAGASVTLNGFG [inhibitor peptide Asf1/H3-H4 of SEQ ID No 55], with 880 nM.
Same read-out and setting: then GAMGTITPKEAQLARRIRG [Stabilized H3 fragment of SEQ ID No 71], with 1400 nM; and GAMGTIMPKDIQLARRIRGAGGRTLYGFG [inhibitor peptide Asf1/H3-H4, peptide i4_1], with 560 nM.
Molecule GAMGTLTPKEAELARRIRGARTLNGFG [inhibitor peptide Asf1/H3-H4 of SEQ ID No 73] registered a Kd of 3890 nM.
In the case of RRPRRPRRPRRPRRPASTERKWAELARRIRGAGGVTLNGFGGCA [inhibitor peptide Asf1/H3-H4, peptide RRP5-i5], the affinity, expressed as Kd, was 670 nM. This Kd is about 5.8-fold lower than that of the molecule before.
The molecule GAMGTLTPKEAELARRIRG [Stabilized H3 fragment of SEQ ID No 72] showed a dissociation constant (Kd) of 2230 nM.
RRPRRPRRPRRPRRPGAMGTITPKEAQLARRIRGAGGVTLNGFG [inhibitor peptide Asf1/H3-H4, peptide RRP5-i42V] yielded a Kd of 590 nM. This Kd lies about 3.8-fold lower than the previous one.
Same read-out and setting: then GAMGRVPPAVRKLGNSTERKWAELARRIRGAGGVTLNGFG [inhibitor peptide Asf1/H3-H4 of SEQ ID No 64], with 80 nM; and B1, with 8700 nM; and GAMGLTAAEHAKRSTLTPKEAQLARRIRGAGGVTLNGFG [inhibitor peptide Asf1/H3-H4 of SEQ ID No 52], with 30 nM.
Still for that read-out and setting: then RRPRRPRRPRRPRRPGAMGTITPKEAQLARRIRGAGGVTLNGFGCA [inhibitor peptide Asf1/H3-H4, peptide RRP5-i42V-CA], with 420 nM; and RRPRRPRRPRRPRRPGAMGTIMPKDIQLARRIRGGCA [inhibitor peptide Asf1/H3-H4, peptide RRP5-i1], with 460 nM.

The target in the next experiment is T2, human protein GST-Asf1 1-156 (human, UniProt Q9Y294 1-156).
T2 construct: range 1-156; also called GST-Asf1a; GST beads linked to Asf1; not shown: GST tag
T2 sequence (Q9Y294 1-156 limits assumed): as the sequence (Q9Y294 1-156 limits assumed) above
In words: competition on GST column: GST-Asf1 1-156 beads loaded with histones H3-H4, elution with 0, 5, 10, 50 and 100 µM peptide; released histone H3 shown by Western blot (anti-H3, anti-GST). As for the experimental part:
The human protein GST-Asf1 1-156 was produced and then incubated with GST beads (glutathione S transferase, Sigma). […] After washing with 50 mM Tris buffer pH8, 150 mM NaCl, 1 mM EDTA, 1 mM DTT, 0.5% NP40, the beads were incubated with different concentrations of peptide (0 to 1 mM) dissolved in the same buffer.
Background: Immunoblotting shows a protein as a band on a membrane.
In the case of ASTERKWAEAARRARGAGGVTLNGAG [Peptide i5mut (control peptide)], the binding result is listed as “no binding (tested: 100 µM)”.
